B1: CPEB3 Ribozyme (parent)
chain: UAACAGGGGGCCACAGCAGAAGCGUUCACGUCGCAGCCCCUGUCAGAUUCUGGUGAAUCUGCGAAUUCUGCUGUAUAUCUC

Variants of: B1
Assay: self-cleavage, relative activity (ratio to wild type); higher = more cleavage; in vitro, sequencing
Procedure, shortened: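 For each CPEB3 ribozyme variant, relative activity is its cleaved/total read fraction divided by the unmutated ribozyme's. Barcoded error-prone PCR libraries were transcribed by T7 RNA polymerase (5 hours, 37°C) and held in DNase I for 15 min before an EDTA stop, with cleavage occurring throughout. Template-switching reverse transcription and Illumina sequencing were used to read the RNAs. A 5-read minimum applied, and results are the mean of three batches.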

Variant	self-cleavage
UAACUGGGGGCCACAGCAGAAGCGUUCACGUCGCAGCCCCUGUCAGAUUCUGGUGAAUCUGCGAAUGCUGCUGUAUAUCUC [A5U U67G]	0.54
UAACUGGGGGCCACAGCAGAAGCGUUCACGUCGCAGCCCCUGUCAGAUUCUGGUGAAUCUGCGAAUUCAGCUGUAUAUCUC [A5U U69A]	0.81
UAACUGGGGGCCACAGCAGAAGCGUUCACGUCGCAGCCCCUGUCAGAUUCUGGUGAAUCUGCGAAUUCCGCUGUAUAUCUC [A5U U69C]	0.74
UAACUGGGGGCCACAGCAGAAGCGUUCACGUCGCAGCCCCUGUCAGAUUCUGGUGAAUCUGCGAAUUCUGCAGUAUAUCUC [A5U U72A]	0.71
UAACUGGGGGCCACAGCAGAAGCGUUCACGUCGCAGCCCCUGUCAGAUUCUGGUGAAUCUGCGAAUUCUGCCGUAUAUCUC [A5U U72C]	1.14
UAACUGGGGGCCACAGCAGAAGCGUUCACGUCGCAGCCCCUGUCAGAUUCUGGUGAAUCUGCGAAUUCUGCGGUAUAUCUC [A5U U72G]	0.94
UAACUGGGGGCCACAGCAGAAGCGUUCACGUCGCAGCCCCUGUCAGAUUCUGGUGAAUCUGCGAAUUCUGCUGAAUAUCUC [A5U U74A]	1.24
UAACUGGGGGCCACAGCAGAAGCGUUCACGUCGCAGCCCCUGUCAGAUUCUGGUGAAUCUGCGAAUUCUGCUGCAUAUCUC [A5U U74C]	1.14
UAACUGGGGGCCACAGCAGAAGCGUUCACGUCGCAGCCCCUGUCAGAUUCUGGUGAAUCUGCGAAUUCUGCUGUAAAUCUC [A5U U76A]	1.12
UAACUGGGGGCCACAGCAGAAGCGUUCACGUCGCAGCCCCUGUCAGAUUCUGGUGAAUCUGCGAAUUCUGCUGUACAUCUC [A5U U76C]	1.13
UAACUGGGGGCCACAGCAGAAGCGUUCACGUCGCAGCCCCUGUCAGAUUCUGGUGAAUCUGCGAAUUCUGCUGUAUAACUC [A5U U78A]	1.15
UAACUGGGGGCCACAGCAGAAGCGUUCACGUCGCAGCCCCUGUCAGAUUCUGGUGAAUCUGCGAAUUCUGCUGUAUACCUC [A5U U78C]	0.93
UAACUGGGGGCCACAGCAGAAGCGUUCACGUCGCAGCCCCUGUCAGAUUCUGGUGAAUCUGCGAAUUCUGCUGUAUAUCAC [A5U U80A]	1.32
UAACUGGGGGCCACAGCAGAAGCGUUCACGUCGCAGCCCCUGUCAGAUUCUGGUGAAUCUGCGAAUUCUGCUGUAUAUCCC [A5U U80C]	1.12
UAACUGGGGGCCACAGCAGAAGCGUUCACGUCGCAGCCCCUGUCAGAUUCUGGUGAAUCUGCGAAUUCUGCUGUAUAUCGC [A5U U80G]	1.14
UAACAAGGGGCCACAGCAGAAGCGUUCACGUCGCAGCCCCUGUCAGAUUCUGGUGAAUCUGCGAAUUCUGCUGUAUAUCUC [G6A]	0.4
UAACAAGGGGCCCCAGCAGAAGCGUUCACGUCGCAGCCCCUGUCAGAUUCUGGUGAAUCUGCGAAUUCUGCUGUAUAUCUC [G6A A13C]	0.4
UAACAAGGGGCCGCAGCAGAAGCGUUCACGUCGCAGCCCCUGUCAGAUUCUGGUGAAUCUGCGAAUUCUGCUGUAUAUCUC [G6A A13G]	0.35
UAACAAGGGGCCUCAGCAGAAGCGUUCACGUCGCAGCCCCUGUCAGAUUCUGGUGAAUCUGCGAAUUCUGCUGUAUAUCUC [G6A A13U]	0.28
UAACAAGGGGCCACCGCAGAAGCGUUCACGUCGCAGCCCCUGUCAGAUUCUGGUGAAUCUGCGAAUUCUGCUGUAUAUCUC [G6A A15C]	0.42
UAACAAGGGGCCACGGCAGAAGCGUUCACGUCGCAGCCCCUGUCAGAUUCUGGUGAAUCUGCGAAUUCUGCUGUAUAUCUC [G6A A15G]	0.36
UAACAAGGGGCCACUGCAGAAGCGUUCACGUCGCAGCCCCUGUCAGAUUCUGGUGAAUCUGCGAAUUCUGCUGUAUAUCUC [G6A A15U]	0.18
UAACAAGGGGCCACAGCCGAAGCGUUCACGUCGCAGCCCCUGUCAGAUUCUGGUGAAUCUGCGAAUUCUGCUGUAUAUCUC [G6A A18C]	0.44

Variant	self-cleavage
UAACAAGGGGCCACAGCGGAAGCGUUCACGUCGCAGCCCCUGUCAGAUUCUGGUGAAUCUGCGAAUUCUGCUGUAUAUCUC [G6A A18G]	0.31
UAACAAGGGGCCACAGCUGAAGCGUUCACGUCGCAGCCCCUGUCAGAUUCUGGUGAAUCUGCGAAUUCUGCUGUAUAUCUC [G6A A18U]	0.23
UAACAAGGGGCCACAGCAGGAGCGUUCACGUCGCAGCCCCUGUCAGAUUCUGGUGAAUCUGCGAAUUCUGCUGUAUAUCUC [G6A A20G]	0.48
UAACAAGGGGCCACAGCAGUAGCGUUCACGUCGCAGCCCCUGUCAGAUUCUGGUGAAUCUGCGAAUUCUGCUGUAUAUCUC [G6A A20U]	0.07
UAACAAGGGGCCACAGCAGAGGCGUUCACGUCGCAGCCCCUGUCAGAUUCUGGUGAAUCUGCGAAUUCUGCUGUAUAUCUC [G6A A21G]	0.49
UAACAAGGGGCCACAGCAGAUGCGUUCACGUCGCAGCCCCUGUCAGAUUCUGGUGAAUCUGCGAAUUCUGCUGUAUAUCUC [G6A A21U]	0.31
UAACAAGGGGCCACAGCAGAAGCGUUCCCGUCGCAGCCCCUGUCAGAUUCUGGUGAAUCUGCGAAUUCUGCUGUAUAUCUC [G6A A28C]	0.15
UAACAAGGGGCCACAGCAGAAGCGUUCGCGUCGCAGCCCCUGUCAGAUUCUGGUGAAUCUGCGAAUUCUGCUGUAUAUCUC [G6A A28G]	0.29
UAACAAGGGGCCACAGCAGAAGCGUUCUCGUCGCAGCCCCUGUCAGAUUCUGGUGAAUCUGCGAAUUCUGCUGUAUAUCUC [G6A A28U]	0.4
UAACAAGGGGCCACAGCAGAAGCGUUCACGUCGCCGCCCCUGUCAGAUUCUGGUGAAUCUGCGAAUUCUGCUGUAUAUCUC [G6A A35C]	0.3
UAACAAGGGGCCACAGCAGAAGCGUUCACGUCGCGGCCCCUGUCAGAUUCUGGUGAAUCUGCGAAUUCUGCUGUAUAUCUC [G6A A35G]	0.86
UAACAAGGGGCCACAGCAGAAGCGUUCACGUCGCUGCCCCUGUCAGAUUCUGGUGAAUCUGCGAAUUCUGCUGUAUAUCUC [G6A A35U]	0.26
UAACAAGGGGCCACAGCAGAAGCGUUCACGUCGCAGCCCCUGUCGGAUUCUGGUGAAUCUGCGAAUUCUGCUGUAUAUCUC [G6A A45G]	0.14
UAACAAGGGGCCACAGCAGAAGCGUUCACGUCGCAGCCCCUGUCUGAUUCUGGUGAAUCUGCGAAUUCUGCUGUAUAUCUC [G6A A45U]	0.38
UAACAAGGGGCCACAGCAGAAGCGUUCACGUCGCAGCCCCUGUCAGGUUCUGGUGAAUCUGCGAAUUCUGCUGUAUAUCUC [G6A A47G]	0.46
UAACAAGGGGCCACAGCAGAAGCGUUCACGUCGCAGCCCCUGUCAGUUUCUGGUGAAUCUGCGAAUUCUGCUGUAUAUCUC [G6A A47U]	0.32
UAACAAGGGGCCACAGCAGAAGCGUUCACGUCGCAGCCCCUGUCAGAUUCUGGUGGAUCUGCGAAUUCUGCUGUAUAUCUC [G6A A56G]	0.28
UAACAAGGGGCCACAGCAGAAGCGUUCACGUCGCAGCCCCUGUCAGAUUCUGGUGUAUCUGCGAAUUCUGCUGUAUAUCUC [G6A A56U]	0.2
UAACAAGGGGCCACAGCAGAAGCGUUCACGUCGCAGCCCCUGUCAGAUUCUGGUGAGUCUGCGAAUUCUGCUGUAUAUCUC [G6A A57G]	0.34
UAACAAGGGGCCACAGCAGAAGCGUUCACGUCGCAGCCCCUGUCAGAUUCUGGUGAUUCUGCGAAUUCUGCUGUAUAUCUC [G6A A57U]	0.29
UAACAAGGGGCCACAGCAGAAGCGUUCACGUCGCAGCCCCUGUCAGAUUCUGGUGAAUCUGCGGAUUCUGCUGUAUAUCUC [G6A A64G]	0.27
UAACAAGGGGCCACAGCAGAAGCGUUCACGUCGCAGCCCCUGUCAGAUUCUGGUGAAUCUGCGUAUUCUGCUGUAUAUCUC [G6A A64U]	0.2
UAACAAGGGGCCACAGCAGAAGCGUUCACGUCGCAGCCCCUGUCAGAUUCUGGUGAAUCUGCGAGUUCUGCUGUAUAUCUC [G6A A65G]	0.16

Variant	self-cleavage
UAACAAGGGGCCACAGCAGAAGCGUUCACGUCGCAGCCCCUGUCAGAUUCUGGUGAAUCUGCGAUUUCUGCUGUAUAUCUC [G6A A65U]	0.22
UAACAAGGGGCCACAGCAGAAGCGUUCACGUCGCAGCCCCUGUCAGAUUCUGGUGAAUCUGCGAAUUCUGCUGUGUAUCUC [G6A A75G]	0.27
UAACAAGGGGCCACAGCAGAAGCGUUCACGUCGCAGCCCCUGUCAGAUUCUGGUGAAUCUGCGAAUUCUGCUGUUUAUCUC [G6A A75U]	0.51
UAACAAGGGGCCACAGCAGAAGCGUUCACGUCGCAGCCCCUGUCAGAUUCUGGUGAAUCUGCGAAUUCUGCUGUAUCUCUC [G6A A77C]	0.44
UAACAAGGGGCCACAGCAGAAGCGUUCACGUCGCAGCCCCUGUCAGAUUCUGGUGAAUCUGCGAAUUCUGCUGUAUGUCUC [G6A A77G]	0.45
UAACAAGGGGCCACAGCAGAAGCGUUCACGUCGCAGCCCCUGUCAGAUUCUGGUGAAUCUGCGAAUUCUGCUGUAUUUCUC [G6A A77U]	0.34
UAACAAGGGGCAACAGCAGAAGCGUUCACGUCGCAGCCCCUGUCAGAUUCUGGUGAAUCUGCGAAUUCUGCUGUAUAUCUC [G6A C12A]	0.39
UAACAAGGGGCUACAGCAGAAGCGUUCACGUCGCAGCCCCUGUCAGAUUCUGGUGAAUCUGCGAAUUCUGCUGUAUAUCUC [G6A C12U]	0.59
UAACAAGGGGCCAUAGCAGAAGCGUUCACGUCGCAGCCCCUGUCAGAUUCUGGUGAAUCUGCGAAUUCUGCUGUAUAUCUC [G6A C14U]	0.57
UAACAAGGGGCCACAGAAGAAGCGUUCACGUCGCAGCCCCUGUCAGAUUCUGGUGAAUCUGCGAAUUCUGCUGUAUAUCUC [G6A C17A]	0.54
UAACAAGGGGCCACAGUAGAAGCGUUCACGUCGCAGCCCCUGUCAGAUUCUGGUGAAUCUGCGAAUUCUGCUGUAUAUCUC [G6A C17U]	0.22
UAACAAGGGGCCACAGCAGAAGAGUUCACGUCGCAGCCCCUGUCAGAUUCUGGUGAAUCUGCGAAUUCUGCUGUAUAUCUC [G6A C23A]	0.1
UAACAAGGGGCCACAGCAGAAGGGUUCACGUCGCAGCCCCUGUCAGAUUCUGGUGAAUCUGCGAAUUCUGCUGUAUAUCUC [G6A C23G]	0.35
UAACAAGGGGCCACAGCAGAAGUGUUCACGUCGCAGCCCCUGUCAGAUUCUGGUGAAUCUGCGAAUUCUGCUGUAUAUCUC [G6A C23U]	0.12
UAACAAGGGGCCACAGCAGAAGCGUUCAAGUCGCAGCCCCUGUCAGAUUCUGGUGAAUCUGCGAAUUCUGCUGUAUAUCUC [G6A C29A]	0.05
UAACAAGGGGCCACAGCAGAAGCGUUCAUGUCGCAGCCCCUGUCAGAUUCUGGUGAAUCUGCGAAUUCUGCUGUAUAUCUC [G6A C29U]	0.08
UAACAAGGGGCCACAGCAGAAGCGUUCACGUAGCAGCCCCUGUCAGAUUCUGGUGAAUCUGCGAAUUCUGCUGUAUAUCUC [G6A C32A]	0.26
UAACAAGGGGCCACAGCAGAAGCGUUCACGUCGUAGCCCCUGUCAGAUUCUGGUGAAUCUGCGAAUUCUGCUGUAUAUCUC [G6A C34U]	0.15
UAACAAGGGGCCACAGCAGAAGCGUUCACGUCGCAGUCCCUGUCAGAUUCUGGUGAAUCUGCGAAUUCUGCUGUAUAUCUC [G6A C37U]	0.2
UAACAAGGGGCCACAGCAGAAGCGUUCACGUCGCAGCACCUGUCAGAUUCUGGUGAAUCUGCGAAUUCUGCUGUAUAUCUC [G6A C38A]	0.1
UAACAAGGGGCCACAGCAGAAGCGUUCACGUCGCAGCUCCUGUCAGAUUCUGGUGAAUCUGCGAAUUCUGCUGUAUAUCUC [G6A C38U]	0.3
UAACAAGGGGCCACAGCAGAAGCGUUCACGUCGCAGCCACUGUCAGAUUCUGGUGAAUCUGCGAAUUCUGCUGUAUAUCUC [G6A C39A]	0.49
